Measurements published in the supplement of paper PMC9233669.
This sample holds only a part of the variants without activity.

Columns and labels:
biotinyl-Phe-oxazolone = test: self-aminoacylation, catalytic enhancement (BFO) (fold over background); higher = more active; k-Seq, kA / k0A0; sequences stand for … in GGGAAUGGAUCCACAUCUACGAAUUC…UUCACUGCAGACUUGACGAAGCUG
Procedure, shortened: (§1)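 Catalytic enhancement equals the median kA over the uncatalyzed rate, the latter read from the low-activity peak of a bimodal Gaussian fit. Values of kA came from fitting each sequence's fraction reacted to a pseudo-first-order model, with 1000 bootstraps. Reacted RNA was captured with streptavidin and quantified by triplicate qPCR and Illumina sequencing after 90 minutes at room temperature with 2–1250 μM biotinyl-aminoacyl-oxazolone and 0.43 μM mutagenized RNA pools bearing a 21-nt variable region.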

biotinyl-Ile-oxazolone = test: self-aminoacylation, catalytic enhancement (BIO) (fold over background); higher = more active; k-Seq, kA / k0A0; sequences stand for … in GGGAAUGGAUCCACAUCUACGAAUUC…UUCACUGCAGACUUGACGAAGCUG
Procedure, shortened: as §1

biotinyl-Met-oxazolone = test: self-aminoacylation, catalytic enhancement (BMO) (fold over background); higher = more active; k-Seq, kA / k0A0; sequences stand for … in GGGAAUGGAUCCACAUCUACGAAUUC…UUCACUGCAGACUUGACGAAGCUG
Procedure, shortened: as §1

biotinyl-Val-oxazolone = test: self-aminoacylation, catalytic enhancement (BVO) (fold over background); higher = more active; k-Seq, kA / k0A0; sequences stand for … in GGGAAUGGAUCCACAUCUACGAAUUC…UUCACUGCAGACUUGACGAAGCUG
Procedure, shortened: as §1

biotinyl-Leu-oxazolone = test: self-aminoacylation, catalytic enhancement (BLO) (fold over background); higher = more active; k-Seq, kA / k0A0; sequences stand for … in GGGAAUGGAUCCACAUCUACGAAUUC…UUCACUGCAGACUUGACGAAGCUG
Procedure, shortened: as §1

biotinyl-Trp-oxazolone = test: self-aminoacylation, catalytic enhancement (BWO) (fold over background); higher = more active; k-Seq, kA / k0A0; sequences stand for … in GGGAAUGGAUCCACAUCUACGAAUUC…UUCACUGCAGACUUGACGAAGCUG
Procedure, shortened: as §1

| Sequence | self-aminoacylation (biotinyl-Phe-oxazolone) | self-aminoacylation (biotinyl-Ile-oxazolone) | self-aminoacylation (biotinyl-Met-oxazolone) | self-aminoacylation (biotinyl-Val-oxazolone) | self-aminoacylation (biotinyl-Leu-oxazolone) | self-aminoacylation (biotinyl-Trp-oxazolone) |
| --- | --- | --- | --- | --- | --- | --- |
| CUUACCCUGGUCAUCGCGUGA [Fam2.1 aminoacylation ribozyme variant] | 148 | 7.79 | 18.7 | 10.9 | 18.9 | 18.5 |
| CUUACCCUGGUCAUGGAGUGA [Fam2.1 aminoacylation ribozyme variant] | 10.1 | 2.16 | 3.59 | 2.21 | 3.74 | 4.01 |
| CUUACGCUGGUCAUCGAGUGA [Fam2.1 aminoacylation ribozyme variant] | 7.86 | 2.13 | 3.06 | 2.61 | 3.03 | 3.35 |
| CUUACUCUGGUCAUCGAGUGA [Fam2.1 aminoacylation ribozyme variant] | 14.2 | 2.54 | 4.98 | 3.07 | 5.28 | 5.52 |
| CUUCACCUACGUCAUCGGGUG [Fam2.2 aminoacylation ribozyme variant] | 37.8 | 3.06 | 5.1 | 3.69 | 5.63 | 4.58 |
| CUUCACCUAGGACAUCGGGUG [Fam2.2 aminoacylation ribozyme variant] | 14.1 | 2.34 | 3.03 | 2.68 | 3.53 | 3.31 |
| CUUCACCUAGGCCAUCGGGUG [Fam2.2 aminoacylation ribozyme variant] | 11.2 | 2.55 | 3.12 | 3.8 | 4.08 | 4.2 |
| CUUCACCUAGGUCAUCAGGUG [Fam2.2 aminoacylation ribozyme variant] | 1.47 | 1.46 | 1.62 | 1.7 | 1.84 | 1.31 |
| CUUCACCUAGGUCAUCGCGUG [Fam2.2 aminoacylation ribozyme variant] | 96.5 | 7.29 | 12.4 | 8.89 | 13.6 | 10.9 |
| CUUCACCUAGGUCAUCGGGUG [Fam2.2 aminoacylation ribozyme variant] | 34.6 | 4.63 | 7.51 | 5.18 | 9 | 6.65 |
| CUUCACCUAGGUCAUCGGGUU [Fam2.2 aminoacylation ribozyme variant] | 18.1 | 4.09 | 5.02 | 3.77 | 7.09 | 5.02 |
| CUUCACCUAGGUCAUUGGGUG [Fam2.2 aminoacylation ribozyme variant] | 12.3 | 1.98 | 2.36 | 2.22 | 2.25 | 2.35 |
| CUUCACCUAUGUCAUCGGGUG [Fam2.2 aminoacylation ribozyme variant] | 17 | 2.35 | 3.64 | 2.83 | 4.68 | 4.46 |
| CUUCACGUAGGUCAUCGGGUG [Fam2.2 aminoacylation ribozyme variant] | 36.6 | 3.59 | 4.38 | 4.16 | 4.22 | 4.63 |
| CUUCACUUCAAGCAAUCGGUC [Fam1B.1 aminoacylation ribozyme variant] | 46.4 | 1.05 | 1.16 | 1.15 | 1.55 | 20.9 |
| CUUCAGCUAGGUCAUCGGGUG [Fam2.2 aminoacylation ribozyme variant] | 16 | 2.65 | 3.42 | 3.6 | 3.57 | 3.83 |
| CUUCGCCUAGGUCAUCGGGUG [Fam2.2 aminoacylation ribozyme variant] | 37.4 | 3.75 | 3.41 | 4.54 | 4.47 | 5.8 |
| CUUCUCCUAGGUCAUCGGGUG [Fam2.2 aminoacylation ribozyme variant] | 35.6 | 4.42 | 6.43 | 4.48 | 8.84 | 6.52 |
| CUUCUUAAAACAAUCGGUCUG [Fam1A.1 aminoacylation ribozyme variant] | 0.699 | 0.859 | 0.895 | 0.748 | 0.739 | 0.564 |
| CUUCUUCAAAAAAUCGGUCUG [Fam1A.1 aminoacylation ribozyme variant] | 6.58 | 1 | 0.902 | 0.851 | 1.02 | 5.39 |
| CUUCUUCAAACAAUCGGUCUC [Fam1A.1 aminoacylation ribozyme variant] | 28.6 | 0.814 | 0.773 | 0.874 | 1.08 | 13.6 |
| CUUCUUCAAACAAUCGUUCUG [Fam1A.1 aminoacylation ribozyme variant] | 1.06 | 0.68 | 0.62 | 0.6 | 0.65 | 0.804 |
| CUUCUUCAAUCAAUCGGUCUG [Fam1A.1 aminoacylation ribozyme variant] | 18.9 | 0.975 | 0.986 | 0.956 | 1.21 | 11.3 |
| CUUGACCUAGGUCAUCGGGUG [Fam2.2 aminoacylation ribozyme variant] | 23.2 | 3.43 | 3.39 | 3.87 | 4.42 | 5.2 |
| CUUGCCCUGGUCAUCGAGUGA [Fam2.1 aminoacylation ribozyme variant] | 64.3 | 6.56 | 15.4 | 7.34 | 14.7 | 16.5 |
| CUUGUUCAAACAAUCGGUCUG [Fam1A.1 aminoacylation ribozyme variant] | 5.84 | 1.07 | 0.957 | 0.967 | 1.18 | 3.07 |

| Sequence | self-aminoacylation (biotinyl-Phe-oxazolone) | self-aminoacylation (biotinyl-Ile-oxazolone) | self-aminoacylation (biotinyl-Met-oxazolone) | self-aminoacylation (biotinyl-Val-oxazolone) | self-aminoacylation (biotinyl-Leu-oxazolone) | self-aminoacylation (biotinyl-Trp-oxazolone) |
| --- | --- | --- | --- | --- | --- | --- |
| CUUUACCUAGGUCAUCGGGUG [Fam2.2 aminoacylation ribozyme variant] | 25.3 | 3.85 | 5.23 | 3.71 | 7.1 | 5.46 |
| CUUUUUCAAACAAUCGGUCUG [Fam1A.1 aminoacylation ribozyme variant] | 6.81 | 0.86 | 0.67 | 0.815 | 0.89 | 3.86 |
| GAGUCUGCUAAUAGUCGCAAG [Fam3.1 aminoacylation ribozyme variant] | 46.9 | 1.99 | 2.34 | 1.63 | 2.07 | 14 |
| GAGUUUACUAAUAGUCGCAAG [Fam3.1 aminoacylation ribozyme variant] | 3.13 | 1.84 | 1.19 | 1.29 | 1.59 | 2.33 |
| GAGUUUGCUAAUAGUCGCAAG [Fam3.1 aminoacylation ribozyme variant] | 22.7 | 1.72 | 1.78 | 1.5 | 1.39 | 7.44 |
| GAGUUUGCUAAUUGUCGCAAG [Fam3.1 aminoacylation ribozyme variant] | 2.2 | 1.36 | 1.34 | 1.24 | 1.53 | 2.06 |
| GAGUUUGCUAUUAGUCGCAAG [Fam3.1 aminoacylation ribozyme variant] | 2.47 | 1.18 | 1.17 | 1.01 | 1.28 | 1.72 |
| GAUACCCUGGUCAUCGAGUGA [Fam2.1 aminoacylation ribozyme variant] | 31.6 | 4.92 | 8.5 | 5.43 | 7.96 | 10.5 |
| GCAAACUUCAAGCAAUCGGUC [Fam1B.1 aminoacylation ribozyme variant] | 21.7 | 2.13 | 2.05 | 2.17 | 2.47 | 19.5 |
| GCACACUUAAAGCAAUCGGUC [Fam1B.1 aminoacylation ribozyme variant] | 1.1 | 1.25 | 1.06 | 1.18 | 1.15 | 1.49 |
| GCACACUUCAAGAAAUCGGUC [Fam1B.1 aminoacylation ribozyme variant] | 7.74 | 1.97 | 1.87 | 1.59 | 2.21 | 8.15 |
| GCACACUUCAAGCAAUCGGUG [Fam1B.1 aminoacylation ribozyme variant] | 49.1 | 6.23 | 8.09 | 5.92 | 10.3 | 10.1 |
| GCACACUUCAAGCAGUCGGUC [Fam1B.1 aminoacylation ribozyme variant] | 1.33 | 1.56 | 1.55 | 1.41 | 1.75 | 1.69 |
| GCACACUUCAAGCCAUCGGUC [Fam1B.1 aminoacylation ribozyme variant] | 8.33 | 2.81 | 2.32 | 2.57 | 2.81 | 3.87 |
| GCACACUUCAAGGAAUCGGUC [Fam1B.1 aminoacylation ribozyme variant] | 3.95 | 1.67 | 1.55 | 1.22 | 1.61 | 4.35 |
| GCACACUUCAAGUAAUCGGUC [Fam1B.1 aminoacylation ribozyme variant] | 8.6 | 1.89 | 1.88 | 1.7 | 1.77 | 8.15 |
| GCACACUUCGAGCAAUCGGUC [Fam1B.1 aminoacylation ribozyme variant] | 2.2 | 1.87 | 1.9 | 1.81 | 1.46 | 2.86 |
| GCACACUUCUAGCAAUCGGUC [Fam1B.1 aminoacylation ribozyme variant] | 1.34 | 1.2 | 0.936 | 1.22 | 0.999 | 1.28 |
| GUACACUUCAAGCAAUCGGUC [Fam1B.1 aminoacylation ribozyme variant] | 21.1 | 1.55 | 1.29 | 1.34 | 1.64 | 18.4 |
| GUACUUCAAACAAUCGCUCUG [Fam1A.1 aminoacylation ribozyme variant] | 3.1 | 1.77 | 1.91 | 1.71 | 1.88 | 3.76 |
| GUACUUCAAACAAUCGGCCUG [Fam1A.1 aminoacylation ribozyme variant] | 272 | 4.51 | 4.06 | 4.17 | 7.02 | 89.6 |
| GUACUUCAAACAAUCGGGCUG [Fam1A.1 aminoacylation ribozyme variant] | 21.1 | 3.02 | 2.47 | 2.8 | 2.67 | 14.6 |
| GUACUUCAAACAAUCUGUCUG [Fam1A.1 aminoacylation ribozyme variant] | 4.1 | 1.76 | 1.41 | 1.56 | 1.45 | 3.06 |
| GUACUUCAAACAUUCGGUCUG [Fam1A.1 aminoacylation ribozyme variant] | 6.13 | 1.63 | 1.6 | 1.96 | 1.66 | 2.34 |
| GUACUUCACACAAUCGGUCUG [Fam1A.1 aminoacylation ribozyme variant] | 1.5 | 1.34 | 1.02 | 1.3 | 1.11 | 1.67 |
